According to patent US11672873 (NANTBIO, dated 2023):
Each block holds one binder with its values, some of them ahead of it.

Biological target: T1, B7-H4 expressed on the human breast cancer cell line SkBr3 and on the B7-H4 expressing cell line MX-1 (human (SkBr3 is called a human breast …, UniProt Q7Z7D3 25-282))
T1 construct: whole, on cells; also called VTCN1; B7x
T1 sequence (looked up): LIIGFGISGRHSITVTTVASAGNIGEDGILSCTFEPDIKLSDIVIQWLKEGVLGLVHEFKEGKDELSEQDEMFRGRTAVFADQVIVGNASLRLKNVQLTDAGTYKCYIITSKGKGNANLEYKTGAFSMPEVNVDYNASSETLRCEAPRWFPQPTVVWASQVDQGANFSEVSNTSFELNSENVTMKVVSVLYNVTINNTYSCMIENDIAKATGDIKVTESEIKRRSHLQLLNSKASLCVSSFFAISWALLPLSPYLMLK
Test: staining of SkBr3 cells, antibody at 10 ug/ml (FIG. 1)

- binding result: binds
B1: anti-B7-H4 antibody 801 (antibody, V domains shown)
VH: EVQLVESGGGLVQPGGSLRLSCAASGFTFNSYAMHWVRQAPGKGLEWVSAISGNGGSTRYADSVKGRFTISRDNSKNTLYLQMNSLRAEDTAVYYCARDRFRKVHGFDVWGQGTLVTVSS
VL: DIQMTQSPSSLSASVGDRVTITCQASQDISNYLNWYQQKPGKAPKLLIYDASNLETGVPSRFSGSGSGTDFTFTISSLQPEDIATYYCQQDATFPLTFGQGTKVEIK

- binding result: binds
B2: anti-B7-H4 antibody 817 (antibody, V domains shown)
VH: EVQLVESGGGLVQPGGSLRLSCAASGFTFSSYAMHWVRQAPGKGLEWVSAISGSGGSTRYADSVKGRFTISRDNSKNTLYLQMNSLRAEDTAVYYCARGRWSKWGFDVWGQGTLVTVSS
VL: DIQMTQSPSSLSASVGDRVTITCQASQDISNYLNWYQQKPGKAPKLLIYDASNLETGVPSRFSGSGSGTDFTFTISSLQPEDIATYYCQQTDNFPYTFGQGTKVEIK
